The numbers were not newly measured in publication PMC3036779, which cites them from elsewhere.

This data set has as its target GABARAP (Homo sapiens) (UniProt O95166).
UniProt O95166, sequence (O95166 1-116): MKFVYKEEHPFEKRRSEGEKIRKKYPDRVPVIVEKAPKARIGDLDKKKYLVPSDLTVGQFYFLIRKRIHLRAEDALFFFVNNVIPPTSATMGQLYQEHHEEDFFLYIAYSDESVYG

Consider Nix (from UniProt O60238), for which the Kd (in general, the equilibrium constant for the complex coming apart) is 100 µM.
